Data published in US20240010684A1 (Bayer, published 2024).
*1 amine or outer side, *2 acyl side, *3 side chain or, on linkers, in order; H or OH if unused. Bridges are numbered along the chain shown (N, C = ends). Where no end group is shown, it is not given here. [ ]: non-standard residue; d: D form. Oic = O=C(O)[C@@H]1C[C@@H]2CCCC[C@@H]2N1; Adipoyl = O=C(CCCCC(=O)[*:2])[*:1]; Trx = NC[C@H]1CC[C@H](C(=O)O)CC1; tBuAla = CC(C)(C)C[C@H](N)C(=O)O; Pen = CC(C)(S)[C@H](N)C(=O)O; NMeC = CN[C@@H](CS)C(=O)O; Orn = NCCC[C@H](N)C(=O)O; Dab = NCC[C@H](N)C(=O)O; Abu = CC[C@H](N)C(=O)O; Dap = NC[C@H](N)C(=O)O; PEG2 = NCCOCCOCCC(=O)O; Ahx = NCCCCCC(=O)O

T1: recombinant human MASP1 (amino acids 297-699, C-terminal His Tag) (human, UniProt P48740 297-699)
T1 sequence: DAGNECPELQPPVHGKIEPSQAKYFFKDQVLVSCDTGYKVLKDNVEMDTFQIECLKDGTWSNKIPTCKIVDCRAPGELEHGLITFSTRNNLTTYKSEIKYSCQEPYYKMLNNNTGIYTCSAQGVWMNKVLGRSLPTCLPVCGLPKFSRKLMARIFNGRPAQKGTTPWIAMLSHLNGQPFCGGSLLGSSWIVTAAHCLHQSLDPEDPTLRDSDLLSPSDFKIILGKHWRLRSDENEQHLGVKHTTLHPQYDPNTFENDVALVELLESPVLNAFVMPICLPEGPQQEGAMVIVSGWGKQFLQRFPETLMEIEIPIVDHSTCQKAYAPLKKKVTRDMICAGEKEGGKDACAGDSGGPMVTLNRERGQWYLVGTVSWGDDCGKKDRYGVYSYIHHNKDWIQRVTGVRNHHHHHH

T2: recombinant rat MASP1 (amino acids 302-704, C-terminal His Tag) (rat, UniProt Q8CHN8 302-704)
T2 sequence: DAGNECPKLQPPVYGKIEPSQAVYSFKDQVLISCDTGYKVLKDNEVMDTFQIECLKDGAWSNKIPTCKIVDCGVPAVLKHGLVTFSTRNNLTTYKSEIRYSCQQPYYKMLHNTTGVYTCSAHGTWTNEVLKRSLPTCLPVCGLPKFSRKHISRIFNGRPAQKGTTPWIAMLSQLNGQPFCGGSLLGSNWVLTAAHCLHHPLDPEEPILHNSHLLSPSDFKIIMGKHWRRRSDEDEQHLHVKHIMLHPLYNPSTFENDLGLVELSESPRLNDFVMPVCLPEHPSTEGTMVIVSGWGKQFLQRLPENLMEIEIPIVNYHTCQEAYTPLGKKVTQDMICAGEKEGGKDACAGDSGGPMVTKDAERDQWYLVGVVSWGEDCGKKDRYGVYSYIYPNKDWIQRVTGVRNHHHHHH

B1: Example 60: (Adipic acid)**-IC+SRS-((tBu)A)-PPI-(Pen)+-IPD-(Dap)++-NH2 (peptide)
peptide: Adipoyl-ICSRS[tBuAla]PPI[Pen]IPD[Dap]-NH2
modifications: lactam (positions not given here); disulfide 2-10; not fully specified (bridges); also: TFA salt

Molecular target: recombinant human MASP2 (amino acids 297-686, C-terminal His Tag) (human, UniProt O00187 297-686)
Test: cell-based or functional assay

recombinant human MASP2 (amino acids 297-686, C-terminal His Tag), sequence (O00187 other isoform, or with tags, fused parts or gaps limits assumed): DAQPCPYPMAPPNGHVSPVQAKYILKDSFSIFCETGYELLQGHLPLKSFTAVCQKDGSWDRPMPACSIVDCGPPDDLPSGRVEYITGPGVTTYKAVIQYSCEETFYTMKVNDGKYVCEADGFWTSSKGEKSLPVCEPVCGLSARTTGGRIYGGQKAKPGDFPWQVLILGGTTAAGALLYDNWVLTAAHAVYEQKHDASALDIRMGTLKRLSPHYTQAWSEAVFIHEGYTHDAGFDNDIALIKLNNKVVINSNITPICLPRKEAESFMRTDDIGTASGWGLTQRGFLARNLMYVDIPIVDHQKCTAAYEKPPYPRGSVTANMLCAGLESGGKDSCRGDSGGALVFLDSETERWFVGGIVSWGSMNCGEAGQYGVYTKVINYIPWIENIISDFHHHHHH

human MASP2 IC50 [nM]	Binder
1100	cyclo([Dab]ICSRS[tBuAla]PPI[Pen]IP) (disulfide 3-11; also: TFA salt) [Example 56: (Dab)**-IC+SRS-((tBu)A)-PPI-(Pen)+-IP**]
140	[Ahx]GICSRSLP[Oic]I[Pen]IPD-NH2 (disulfide 4-12; lactam N-15; also: TFA salt) [Example 49: (Ahx)**-GIC+SRSLP-(Oic)-I-(Pen)+-IPD++-NH2]
5.7	cyclo([Ahx][Trx]ICSRS[tBuAla]PPI[Pen]IP) (disulfide 4-12; also: TFA salt) [Example 59: (Ahx)**-(TXA)-IC+SRS-((tBu)A)-PPI-(Pen)+-IP**]
37.5	cyclo([Ahx]AICSRS[tBuAla]PPI[Pen]IPD) (disulfide 4-12; also: TFA salt) [Example 27: (Ahx)**-AIC+SRS-((tBu)A)-PPI-(Pen)+-IPD**]
17	cyclo([Ahx]ICSRS[tBuAla]PPI[Pen]IP) (disulfide 3-11; also: TFA salt) [Example 51: (Ahx)**-IC+SRS-((tBu)A)-PPI-(Pen)+-IP**]
210	cyclo([PEG2]GICSRSLPPICIPD) (disulfide 4-12; also: TFA salt) [Example 24: (PEG1(10 atoms))**-GIC+SRSLPPIC+IPD**]
44	cyclo([Ahx][Abu]ICSRS[tBuAla]PPI[Pen]IPD) (disulfide 4-12; also: TFA salt) [Example 38: (Ahx)**-(Abu)-IC+SRS-((tBu)A)-PPI-(Pen)+-IPD**]
230	[Orn]AICSRS[tBuAla]PPI[NMeC]IPD-NH2 (lactam 1-15; disulfide 4-12; also: TFA salt) [Example 44: (Orn)++-AIC+SRS-((tBu)A)-PPI-((N-Me)C)+-IPD++-NH2]
210	CAICSRS[tBuAla]PPI[Pen]IPDC-NH2 (disulfide 1-16, 4-12; also: TFA salt) [Example 50: C++AIC+SRS-((tBu)A)-PPI-(Pen)+-IPDC++-NH2]
5.4	B1
610	cyclo([Ahx]AICSRSLP[Oic]ICIP) (disulfide 4-12; also: TFA salt) [Example 25: (Ahx)**-AIC+SRSLP-(Oic)-IC+IP**]
89	cyclo([Ahx]AICSRS[tBuAla]PPICIPD) (disulfide 4-12; also: TFA salt) [Example 46: (Ahx)**-AIC+SRS-((tBu)A)-PPIC+IPD**]
160	cyclo(AGGICSRSLP[Oic]I[Pen]IP[dD]) (disulfide 5-13; also: TFA salt) [Example 98: A**GGIC+SRSLP-(Oic)-I-(Pen)+-IPd**]
140	GAICSRSLPPICIPD-NH2 (disulfide 4-12; lactam N-15; also: TFA salt) [Example 37: G**AIC+SRSLPPIC+IPD++-NH2]

Molecular target: T1, recombinant human MASP1 (amino acids …)
Test: cell-based or functional assay

human MASP1 IC50 [nM]	Binder
86	cyclo([Dab]ICSRS[tBuAla]PPI[Pen]IP) (disulfide 3-11; also: TFA salt) [Example 56: (Dab)**-IC+SRS-((tBu)A)-PPI-(Pen)+-IP**]
19	[Ahx]GICSRSLP[Oic]I[Pen]IPD-NH2 (disulfide 4-12; lactam N-15; also: TFA salt) [Example 49: (Ahx)**-GIC+SRSLP-(Oic)-I-(Pen)+-IPD++-NH2]
11	cyclo([Ahx][Trx]ICSRS[tBuAla]PPI[Pen]IP) (disulfide 4-12; also: TFA salt) [Example 59: (Ahx)**-(TXA)-IC+SRS-((tBu)A)-PPI-(Pen)+-IP**]
9.1	cyclo([Ahx]AICSRS[tBuAla]PPI[Pen]IPD) (disulfide 4-12; also: TFA salt) [Example 27: (Ahx)**-AIC+SRS-((tBu)A)-PPI-(Pen)+-IPD**]
6.3	cyclo([Ahx]ICSRS[tBuAla]PPI[Pen]IP) (disulfide 3-11; also: TFA salt) [Example 51: (Ahx)**-IC+SRS-((tBu)A)-PPI-(Pen)+-IP**]
110	cyclo([PEG2]GICSRSLPPICIPD) (disulfide 4-12; also: TFA salt) [Example 24: (PEG1(10 atoms))**-GIC+SRSLPPIC+IPD**]
20	cyclo([Ahx][Abu]ICSRS[tBuAla]PPI[Pen]IPD) (disulfide 4-12; also: TFA salt) [Example 38: (Ahx)**-(Abu)-IC+SRS-((tBu)A)-PPI-(Pen)+-IPD**]
4.7	[Orn]AICSRS[tBuAla]PPI[NMeC]IPD-NH2 (lactam 1-15; disulfide 4-12; also: TFA salt) [Example 44: (Orn)++-AIC+SRS-((tBu)A)-PPI-((N-Me)C)+-IPD++-NH2]
13	CAICSRS[tBuAla]PPI[Pen]IPDC-NH2 (disulfide 1-16, 4-12; also: TFA salt) [Example 50: C++AIC+SRS-((tBu)A)-PPI-(Pen)+-IPDC++-NH2]
58	B1
60	cyclo([Ahx]AICSRSLP[Oic]ICIP) (disulfide 4-12; also: TFA salt) [Example 25: (Ahx)**-AIC+SRSLP-(Oic)-IC+IP**]
56	cyclo([Ahx]AICSRS[tBuAla]PPICIPD) (disulfide 4-12; also: TFA salt) [Example 46: (Ahx)**-AIC+SRS-((tBu)A)-PPIC+IPD**]
19	cyclo(AGGICSRSLP[Oic]I[Pen]IP[dD]) (disulfide 5-13; also: TFA salt) [Example 98: A**GGIC+SRSLP-(Oic)-I-(Pen)+-IPd**]
16	GAICSRSLPPICIPD-NH2 (disulfide 4-12; lactam N-15; also: TFA salt) [Example 37: G**AIC+SRSLPPIC+IPD++-NH2]

Molecular target: T2, recombinant rat MASP1 (amino acids …)
Test: cell-based or functional assay

rat MASP1 IC50 [nM]	Binder
48.6	cyclo([Ahx][Trx]ICSRS[tBuAla]PPI[Pen]IP) (disulfide 4-12; also: TFA salt) [Example 59: (Ahx)**-(TXA)-IC+SRS-((tBu)A)-PPI-(Pen)+-IP**]
330	B1
170	cyclo(AGGICSRSLP[Oic]I[Pen]IP[dD]) (disulfide 5-13; also: TFA salt) [Example 98: A**GGIC+SRSLP-(Oic)-I-(Pen)+-IPd**]

Molecular target: recombinant rat MASP2 (amino acids 296-685, C-terminal His Tag) (rat, UniProt Q9JJS8 296-685)
Test: cell-based or functional assay

recombinant rat MASP2 (amino acids 296-685, C-terminal His Tag), sequence (Q9JJS8 other isoform, or with tags, fused parts or gaps limits assumed): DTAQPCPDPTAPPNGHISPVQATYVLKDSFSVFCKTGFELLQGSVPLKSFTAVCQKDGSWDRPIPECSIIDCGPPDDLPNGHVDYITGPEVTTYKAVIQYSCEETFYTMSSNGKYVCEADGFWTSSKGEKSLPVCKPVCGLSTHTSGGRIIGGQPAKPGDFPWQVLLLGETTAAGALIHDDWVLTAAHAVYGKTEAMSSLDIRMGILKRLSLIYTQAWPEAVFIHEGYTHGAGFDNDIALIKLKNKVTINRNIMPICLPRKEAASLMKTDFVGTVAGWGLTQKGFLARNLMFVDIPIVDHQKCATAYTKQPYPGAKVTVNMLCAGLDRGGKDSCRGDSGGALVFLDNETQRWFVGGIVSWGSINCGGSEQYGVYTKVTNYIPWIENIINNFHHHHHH

rat MASP2 IC50 [nM]	Binder
13	B1
